Measured values as given in patent US20070134813A1.

T1: C-reactive protein (human) (UniProt P02741)
T1 sequence (looked up): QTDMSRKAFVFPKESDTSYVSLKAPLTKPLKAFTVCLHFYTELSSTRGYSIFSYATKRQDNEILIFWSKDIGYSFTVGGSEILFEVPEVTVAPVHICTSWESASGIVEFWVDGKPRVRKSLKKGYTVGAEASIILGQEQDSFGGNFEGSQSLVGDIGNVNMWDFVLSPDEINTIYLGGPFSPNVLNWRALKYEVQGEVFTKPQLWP


How the values were obtained:
[1] = target: T1, C-reactive protein (human); assay: SPR, Fn 1 mg/mL in the presence of 50 uM 9-mer injected over antibody-captured CRP
[2] = target: T1, C-reactive protein (human); assay: SPR, Fn 1 mg/mL in the presence of 50 uM 10-mer injected over antibody-captured CRP
[3] = target: T1, C-reactive protein (human); assay: SPR, Fn 1 mg/mL in the presence of 50 uM 19-mer injected over antibody-captured CRP
[4] = target: T1, C-reactive protein (human); assay: SPR (Biacore X), Fn 1 mg/mL without inhibitor injected over CRP captured on immobilized anti-CRP antibody, 25 C
[5] = target: T1, C-reactive protein (human); assay: SPR, inhibition of Fn (1 mg/mL) binding to antibody-captured CRP at 50 uM peptide

Molecule | SPR Response (RU) [1] [RU] | SPR Response (RU) [2] [RU] | SPR Response (RU) [3] [RU] | SPR Response (RU) [4] [RU] | % Inhibition [5] [%]
fibronectin (from UniProt P02751 32-2477) | 119 | 76 | 76 | 118 | 
PRCGNPDVA [9-mer (SEQ ID NO.: 16)] |  |  |  |  | 0

Other lines, results leading:

SPR Response (RU) [1] [RU] | SPR Response (RU) [2] [RU] | SPR Response (RU) [3] [RU] | SPR Response (RU) [4] [RU] | % Inhibition [5] [%] | Molecule
 |  |  |  | 35.6 | PRCGNPDVANYNFFPRKPK [19-mer (SEQ ID NO.: 11)]
 |  |  |  | 35.6 | NYNFFPRKPK [10-mer (SEQ ID NO.: 12)]
